The target of the assay is wild type CAR (WT CAR): human FcεRIα extracellular domain fused to CD3ζ (human). As to the kind of experiment: cell-based or functional assay.
Target sequence (chain, as listed by the source): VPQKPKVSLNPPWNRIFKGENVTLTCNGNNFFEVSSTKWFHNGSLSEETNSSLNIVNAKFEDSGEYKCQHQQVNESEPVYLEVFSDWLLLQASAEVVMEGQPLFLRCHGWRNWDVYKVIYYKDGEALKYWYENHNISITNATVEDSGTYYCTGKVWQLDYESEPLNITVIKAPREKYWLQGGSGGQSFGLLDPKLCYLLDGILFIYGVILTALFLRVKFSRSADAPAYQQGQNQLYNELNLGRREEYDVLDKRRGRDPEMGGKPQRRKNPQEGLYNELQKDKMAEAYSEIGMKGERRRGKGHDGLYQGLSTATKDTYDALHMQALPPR

Chain of purified human IgE (Abcam) (P01854 other isoform, or with tags, fused parts or gaps): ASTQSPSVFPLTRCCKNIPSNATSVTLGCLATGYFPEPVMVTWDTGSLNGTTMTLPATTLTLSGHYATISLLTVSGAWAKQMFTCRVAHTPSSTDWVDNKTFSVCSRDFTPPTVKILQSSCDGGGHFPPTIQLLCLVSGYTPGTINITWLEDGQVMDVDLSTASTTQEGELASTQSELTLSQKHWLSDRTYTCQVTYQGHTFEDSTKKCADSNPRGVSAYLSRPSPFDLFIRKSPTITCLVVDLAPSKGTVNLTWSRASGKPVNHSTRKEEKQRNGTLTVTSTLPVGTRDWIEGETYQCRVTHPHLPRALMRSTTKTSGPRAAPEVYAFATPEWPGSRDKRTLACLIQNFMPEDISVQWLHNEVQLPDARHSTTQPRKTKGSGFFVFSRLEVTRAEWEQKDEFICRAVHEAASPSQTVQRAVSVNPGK

“purified human IgE (Abcam) (from UniProt P01854 1-428) (antibody)” returned a suppression of CD69 up-regulation by U266 cells, free IgE at 1.7 µg/ml of over 2 fold and a suppression of CD69 up-regulation by U266 cells, free IgE at 10 µg/ml of over 4 fold.

The values above are taken from US20180193452A1.
